In patent US20250346673A1 (DUALITY BIOLOGICS SUZHOU, published 2025):

Key:
cynomolgus BDCA2 = molecular target: T1, cynomolgus BDCA2 (cynomolgus monkey, UniProt A0A2K5UWP4 1-212); assay: FACS on 293F-cynoBDCA2 cells; EC50 table under the plot, unit from the x axis (nM) [continued) c.]
T1 construct: whole, on cells; also called Cyno BDCA2; cynoBDCA2
T1 sequence: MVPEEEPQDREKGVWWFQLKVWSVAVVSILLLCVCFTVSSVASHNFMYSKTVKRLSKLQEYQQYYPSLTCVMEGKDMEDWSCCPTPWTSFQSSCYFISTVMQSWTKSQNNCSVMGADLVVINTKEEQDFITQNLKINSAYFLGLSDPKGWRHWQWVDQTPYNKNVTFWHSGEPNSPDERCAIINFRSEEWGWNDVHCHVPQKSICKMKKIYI
Protocol: (§1) The cells were recovered and resuspended to 2×10⁶/mL with FACS buffer (PBS+2% FBS). The cells were added to 3799 cell plates (Corning) at 100 μL/well, and the supernatant was discarded after centrifugation at 300 g. The antibodies were serially diluted with FACS buffer (Id.), the diluted antibodies were added to centrifuged cells and the cells were resuspended. The cells were incubated at 4° C. for 1 h. The incubated cells were then centrifuged at […] for 5 min and washed twice with FACS buffer. 100 μL Donkey anti-Mouse IgG (H+L) Highly Cross-Adsorbed Secondary Antibody-Alexa Fluor 488 (Invitrogen, A21202; 1:1000) secondary antibody was added to the cells, which were washed twice with FACS buffer after incubation at 4° C. for 1 h, resuspended with PBS, analyzed with FACS (BD FACS CantoTM II) instrument. The curve was fitted with GraphPad Prism6, and EC₅₀ values were calculated.

human BDCA2 [1] = molecular target: T2, human BDCA2 (human, UniProt Q8WTT0 1-213); assay: FACS on CHOK1-hBDCA2 cells; EC50 table under the plot, unit from the x axis (nM) [continued) c.]
T2 construct: whole, on cells; also called hBDCA2; Blood dendritic cell antigen 2
T2 sequence (looked up): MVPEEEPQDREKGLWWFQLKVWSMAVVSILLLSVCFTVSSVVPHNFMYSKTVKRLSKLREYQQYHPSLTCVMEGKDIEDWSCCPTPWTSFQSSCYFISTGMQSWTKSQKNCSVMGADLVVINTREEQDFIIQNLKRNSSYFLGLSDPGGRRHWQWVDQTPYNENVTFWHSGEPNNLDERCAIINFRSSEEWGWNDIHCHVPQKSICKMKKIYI
Protocol: as §1

human BDCA2 [2] = molecular target: T2, human BDCA2; assay: FACS on CHOK1-hBDCA2 cells; EC50 table under the plot, unit from the x axis (nM)
Protocol: (§2) The cells were recovered and resuspended to 2×10⁶/mL with FACS buffer (PBS+2% FBS). The cells were added to 3799 cell plates (Corning) at 100 μL/well, and the supernatant was discarded after centrifugation at 300 g. The antibodies were serially diluted with FACS buffer (Id.), the diluted antibodies were added to centrifuged cells and the cells were resuspended. The cells were incubated at 4° C. for 1 h. The incubated cells were centrifuged at 300 g for 5 min and washed twice with FACS buffer. 100 μL […] anti-Human IgG (H+L) Cross-Adsorbed Secondary Antibody-Alexa Fluor 488 (Sigma, A11013; 1:1000) secondary antibody was added, washed twice with FACS buffer after incubation at 4° C. for 1 h, resuspended with PBS, analyzed with FACS (BD FACS CantoTM II) instrument and curve fitted with GraphPad Prism6, and EC₅₀ values were calculated.

human BDCA2 [3] = molecular target: T2, human BDCA2; assay: as above; remark: listed apart in the source
Protocol: as §1

human BDCA2 [4] = molecular target: T2, human BDCA2; assay: cell-based or functional assay
human BDCA2 [5] = molecular target: T2, human BDCA2; assay: FACS, CHOK1-humanBDCA2 cells
human BDCA2 [6] = molecular target: T2, human BDCA2; assay: FACS on CHOK1-hBDCA2 cells; EC50 table under the plot, unit from the x axis (nM) [continued) d.]
Protocol: as §1

human BDCA2 [7] = molecular target: T2, human BDCA2; assay: FACS on CHOK1-hBDCA2 cells; EC50 table under the plot, unit from the x axis (nM); remark: listed apart in the source
human BDCA2 [8] = molecular target: T2, human BDCA2; assay: FACS on CHOK1-hBDCA2 cells; EC50 table under the plot, unit from the x axis (nM) [continued) e.]
Protocol: as §1

human BDCA2 [9] = molecular target: T2, human BDCA2; assay: FACS on CHOK1-hBDCA2 cells; EC50 table beside the plot, unit from the x axis (nM) [continued) c.]
Protocol: as §2

Recombinant Human BDCA2 = molecular target: T3, Recombinant Human BDCA2 (human, UniProt Q8WTT0 45-213, limits assumed); assay: SPR (BIAcore), antibody captured by anti-human IgG (Fc), hBDCA2 as analyte, 1:1 model
T3 construct: also called hBDCA2 (SPR analyte); human BDCA2 antigen
T3 sequence (looked up): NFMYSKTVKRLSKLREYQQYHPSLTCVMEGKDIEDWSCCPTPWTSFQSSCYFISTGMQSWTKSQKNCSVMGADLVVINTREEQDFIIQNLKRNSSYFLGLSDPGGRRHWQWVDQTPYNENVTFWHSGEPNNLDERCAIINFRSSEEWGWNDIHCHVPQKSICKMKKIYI

human BDCA2 [10] = molecular target: T2, human BDCA2; assay: FACS, CHOK1-humanBDCA2 cells; remark: listed apart in the source
Protocol: The cells were recovered and resuspended to 2×10⁶/mL with FACS buffer (PBS+2% FBS). The resuspended cells were added to 3799 cell plates at 100 μL/well, and the supernatant was discarded after centrifugation at 300 g. […] The cells were incubated at 4° C. for 1 h. The incubated cells were centrifuged at […] for 5 min and washed twice with FACS buffer. 100 μL Goat anti-Human IgG (H+L) Cross-Adsorbed Secondary Antibody, Alexa Fluor 488 (Sigma, A11013; 1:1000) secondary antibody was added, washed twice with FACS buffer after incubation at 4° C. for 1 h. The cells were resuspended with PBS, then the fluorescence signal of antibodies bound to cell surface was analyzed with FACS (BD FACS CantoTM II) instrument and curves were fitted with GraphPad Prism6 to calculate EC₅₀ values for antibodies binding to BDCA2 antigen.

human BDCA2 [11] = molecular target: T2, human BDCA2; assay: FACS on CHOK1-hBDCA2 cells; EC50 table under the plot, unit from the x axis (nM); remark: listed apart in the source
Protocol: as §2

Binder	EC50 (cynomolgus BDCA2)	EC50 (human BDCA2 [1])	EC50 (human BDCA2 [2])	EC50 (human BDCA2 [3])	EC50 (nM), inhibition of CpG-A stimulated IFNα release from human PBMC (human BDCA2 [4])	EC50 (human BDCA2 [5])	EC50 (human BDCA2 [6])	EC50 (human BDCA2 [7])	EC50 (human BDCA2 [8])	EC50 (human BDCA2 [9])	Kd (Recombinant Human BDCA2)	EC50 (human BDCA2 [10])	EC50 (human BDCA2 [11])
mAb016 (antibody, V domains shown, Mouse hybridoma antibody) VH: QVQLKQSGPGLVQPSQSLSITCTVSGFSLTSYGVHWVRQSPGKGLEWLGVIWSGESTDYDAAFISRLSISKDNSKSQVFFRMNSLQADDSAIYYCARRRSHYYGYVMDYWGQGTSVTVSS VL: DIVLTQSPASLAVSLGQRATISCKASQSVDYDGVGYLNWYQHKPGQPPKLLIYAASNLESGIPARFSGSGSGTDFTLNIHPVEEEDAATYYCQQSNEDPPTFGSGTKLEIK	1.78 nM	1.33 nM	–	–	–	–	–	–	–	–	–	–	–
BIIB059 (antibody, V domains shown) VH: DVQLVESGGGLVKPGGSLRLSCAASGFTFSTYTMSWVRQAPGKGLEWVATISPGDSFGYYYPDSVQGRFTISRDNAKNSLYLQMNSLRAEDTAVYYCTRDIYYNYGAWFAYWGQGTLVTVSS VL: DIQLTQSPSSLSASVGDRVTITCKASQSVDYDGDSYMNWYQQKPGKAPKLLIYAASTLESGVPSRFSGSGSGTDFTLTISSLQPEDFATYYCQQANEDPRTFGQGTKVEIKR	–	2.48 nM	1.91 nM	2.17 nM	0.04 nM	1.3 nM	1.09 nM	2.17 nM	1.91 nM	2 nM	1.07 nM	3.1 nM	3.45 nM
mab001c (antibody, V domains shown) VH: QIQLVQSGPELKKPGETVKISCKASGYTFTDFSMHWVKQAPGKGLKWMGWINTETGEPTYADDFKGRFAFSLETSASTAFLQINNLKNDDTTTYFCSRGGDGHPYWYFAVWGAGTTVTVSS VL: DIVLTQSPASLAVSLGQRATISCRASQSVSTSSYSYMHWYQQKPGQPPKLLIKYASILESGVPARFSGSGSGTDFTLNIHPVEEEDTATYYCQHSWEIPFTFGSGTKLEIK	–	–	–	–	–	–	–	–	–	–	–	–	1.9 nM
